# Data reported in patent publication US20250346679A1 (INVOX PHARMA, published 2025).
# Changes are numbered by the printed parent chain.
# T1: cCD137-mFc-Avi (cynomolgus; mouse)
# T1 construct: also called cynomolgus CD137-mFc-Avi; Cyno CD137-mFc-Avi; not shown: mouse IgG2a Fc domain (mIgG2a Fc)
# T1 chain: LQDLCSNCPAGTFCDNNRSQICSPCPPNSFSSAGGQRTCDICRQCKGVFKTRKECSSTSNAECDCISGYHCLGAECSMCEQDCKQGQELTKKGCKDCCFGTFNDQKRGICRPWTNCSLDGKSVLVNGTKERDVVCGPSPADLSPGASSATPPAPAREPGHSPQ
# T2: human GITR (human, UniProt Q9Y5U5 26-161, limits assumed)
# T2 sequence (looked up): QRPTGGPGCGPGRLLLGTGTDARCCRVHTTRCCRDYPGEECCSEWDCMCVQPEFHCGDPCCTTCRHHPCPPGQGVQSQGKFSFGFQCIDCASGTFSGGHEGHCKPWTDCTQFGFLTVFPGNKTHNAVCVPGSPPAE
# T3: human OX40 (human, UniProt P43489 29-216)
# T3 sequence (looked up): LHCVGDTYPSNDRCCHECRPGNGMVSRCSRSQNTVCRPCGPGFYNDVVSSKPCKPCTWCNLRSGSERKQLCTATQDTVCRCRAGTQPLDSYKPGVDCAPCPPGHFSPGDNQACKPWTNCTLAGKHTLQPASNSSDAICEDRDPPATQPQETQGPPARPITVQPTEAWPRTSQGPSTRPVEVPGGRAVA
# B1: FS22-053-008/HeID1.3 (bispecific antibody, human IgG1, kappa)
# heavy: QVQLQESGPGLVRPSQTLSLTCTVSGSTFSGYGVNWVRQPPGRGLEWIGMIWGDGNTDYNSALKSRVTMLVDTSKNQFSLRLSSVTAADTAVYYCARERDYRLDYWGQGSLVTVSSASTKGPSVFPLAPSSKSTSGGTAALGCLVKDYFPEPVTVSWNSGALTSGVHTFPAVLQSSGLYSLSSVVTVPSSSLGTQTYICNVNHKPSNTKVDKKVEPKSCDKTHTCPPCPAPELLGGPSVFLFPPKPKDTLMISRTPEVTCVVVDVSHEDPEVKFNWYVDGVEVHNAKTKPREEQYNSTYRVVSVLTVLHQDWLNGKEYKCKVSNKALPAPIEKTISKAKGQPREPQVYTLPPSRDELNPPYLFSNQVSLTCLVKGFYPSDIAVEWESNGQPENNYKTTPPVLDSDGSFFLYSKLTVDYWRWLEGNVFSCSVMHEALHNHYTQKSLSLSPG
# light: DIQMTQSPASLSASVGETVTITCRASGNIHNYLAWYQQKQGKSPQLLVYNAKTLADGVPSRFSGSGSGTQYSLKINSLQPEDFGSYYCQHFWSTPRTFGGGTKLEIKRTVAAPSVFIFPPSDEQLKSGTASVVCLLNNFYPREAKVQWKVDNALQSGNSQESVTEQDSKDSTYSLSSTLTLSKADYEKHKVYACEVTHQGLSSPVTKSFNRGEC
# notes: mock mAb^2; also called FS22-053-008 (mock mAb^2 format)
# B2: FS22-053-011/HeID1.3 (bispecific antibody, human IgG1, kappa)
# heavy: B1 heavy with L422T, E423D
# light: B1 light
# notes: mock mAb^2; also called FS22-053-011 (mock mAb^2 format)
# B3: FS22-172-003/HeID1.3 (bispecific antibody, human IgG1, kappa)
# heavy: B1 heavy with N358P, P359Y, P360I, Y361I, L362P, F363P, S364Y, D417G, Y418A, W419D
# light: B1 light
# notes: mock mAb^2 without LALA
# B4: FS22-172-004/HeID1.3 (bispecific antibody, human IgG1, kappa)
# heavy: B1 heavy with P359Y, P360I, L362P, F363P, S364Y, D417G, Y418A, W419D
# light: B1 light
# notes: mock mAb^2
# B5: G1-AA/lam-G02v3 (antibody, human IgG1, L234A L235A, V domains shown)
# VH: EVQLVQSGAEVKRPGASVKVSCKASGYTFTSYGISWVRQAPGQGLEWMGWISAYSGGTNYAQKLQGRVTMTTDTSTSTAYMELRSLRSDDTAVYYCARDLFPTIFGVSYYYYWGQGTLVTVSS
# VL: QSALTQPASVSGSPGQSITISCTGTSSDVGGYNYVSWYQQFPGKAPKLMIFEVTNRPSGVSDRFSGSKSDNTASLTISGLQAEDEAEYYCSSFKRGSTLVVFG
# notes: anti-PD-L1 IgG1 with LALA, lambda light chain; also called G1-AA/lambdav3; G1-AA/Iam-G02v3
# B6: G1-AA/E05v2 (antibody, human IgG1, kappa, L234A L235A, V domains shown)
# VH: B5 VH
# VL: DIQMTQSPSTLSASVGDRVTITCRASQSISGRLAWYQQKPGKAPNLLIYEASNLESGVPSRFSGSGSGTEFTLTISSLQPEDFATYYCQQSYSTPRVTFGQGTKVEIKR
# notes: anti-PD-L1 IgG1 with LALA
# B7: G1-AA/G12v2 (antibody, human IgG1, kappa, L234A L235A, V domains shown)
# VH: B5 VH
# VL: DIQMTQSPSTLSASVGDRVTITCRASQSISGRLAWYQQKPGKAPNLLIYEASNLESGVPSRFSGSGSGTEFTLTISSLQPEDFATYYCQQSYSWPRTFGQGTKVEIKR
# notes: anti-PD-L1 IgG1 with LALA
# Target: T4, hCD137-mFc-Avi (human; mouse, UniProt Q07011 24-186, biotin on the Avi sequence where the biotinylated form was used)
# T4 construct: also called human CD137-mFc-Avi; dimeric human CD137; not shown: mouse IgG2a Fc domain (mIgG2a Fc)
# T4 sequence (Q07011 24-186): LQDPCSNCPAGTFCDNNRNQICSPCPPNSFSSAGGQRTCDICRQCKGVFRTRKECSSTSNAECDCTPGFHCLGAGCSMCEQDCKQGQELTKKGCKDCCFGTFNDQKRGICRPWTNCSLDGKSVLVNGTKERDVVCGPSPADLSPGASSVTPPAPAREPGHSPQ
# Assay: SPR, mAb^2 captured by anti-human Fab, antigen in flow, 1:1 Langmuir fit
# Experimental: (§1) An anti-human Fab capture antibody was immobilised on all four flow cells of a CM5 series S chip (GE Healthcare #BR-1005-30) to an average surface density of 6000 RU following the manufacturer's recommendations (GE Healthcare, human Fab capture Kit, #28958325). […] Each mAb² was captured to approximately 150 RU by injecting a 3 μg/ml solution of mAb² diluted in HBS-EP+ buffer (GE Healthcare #BR1006-69) for 60 seconds at 30 μl/min. Then different concentrations of human, cyno or mouse CD137 antigen (unbiotinylated human, cyno or mouse CD137-mFc-Avi or human CD137-Avi-His) in HBS-EP+ buffer were flowed over the chip for 3 min at 60 μl/min and then allowed to dissociate for 10 minutes. After each antigen concentration the chip was regenerated by infecting 10 mM glycine pH 2.1 at a flow rate of 30 μl/min for 30 seconds. Buffer HBS-EP+ was injected before the highest concentration of antigen and after the lowest concentration of antigen for reference subtraction, and one of the concentrations at random was repeated twice. The binding kinetics were fit with a 1:1 Langmuir model to generate equilibrium binding constants (KD) for each sample. Data analysis was performed with BiaEvaluation software version 3.2.
row,Binder,Kd [nM]
1,B1,4.2
2,B2,5.5
3,B3,1.5
4,B4,4.3

# Target: T5, hCD137-Avi-His (human, UniProt Q07011 24-186)
# T5 construct: also called human CD137-Avi-His; monomeric human CD137
# T5 sequence (Q07011 24-186): as above
# Assay: as above
# Experimental: as §1
row,Binder,Human monomeric CD137 KD fold difference relative to human dimeric KD [fold]
1,B1,170
2,B2,> 200
3,B3,> 200
4,B4,> 200

# Target: T1, cCD137-mFc-Avi
# Assay: as above
# Experimental: as §1
row,Binder,Kd [nM]
1,B1,0.9
2,B2,1.3
3,B3,1.3
4,B4,3.5

# Target: human CD137, cell-surface (human, UniProt Q07011 24-255)
# Sequence (Q07011 24-255): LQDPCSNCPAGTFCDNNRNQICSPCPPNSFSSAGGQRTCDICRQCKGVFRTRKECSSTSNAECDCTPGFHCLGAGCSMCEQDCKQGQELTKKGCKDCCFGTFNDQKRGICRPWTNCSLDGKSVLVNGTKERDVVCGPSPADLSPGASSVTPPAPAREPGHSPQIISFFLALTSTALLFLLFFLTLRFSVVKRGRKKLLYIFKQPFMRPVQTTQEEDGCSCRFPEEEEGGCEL
# Assay: cell-based or functional assay
row,Binder,"EC50, NF-κB luciferase assay, crosslinked with Protein L (+XL) [nM]"
1,B1,26.3
2,B3,32.6

# Target: T2, human GITR
# Assay: SPR, receptor amine-coupled to CM5 (~1000 RU)
# Experimental: (§2) The specificity of the anti-human CD137 Fcabs for human CD137 compared to other related TNFSFR family members was tested. 8 of the Fcabs were tested in mock mAb² (HeID1.3) format and measured by SPR in a Biacore T200 (GE Healthcare) by testing for binding to other human TNFRSF receptors: CD40, OX40 and GITR. Amine coupling (amine coupling kit, GE Healthcare, BR-1000-50) was used to coat human CD40, GITR and OX40 to approximately 1000 RU in Biacore CM5 chips (GE Healthcare, cat no 29149603). […] The chip was regenerated by injection of 10 mM glycine pH 2.5 for 12 s at 30 μl/min. Antibodies specific to the different TNFRSF members were used as positive controls to verify Biacore chip coating. Data was double reference subtracted and analysed using BIAevaluation 3.2 software.
row,Binder,binding result
1,B1,no binding (tested: 1 µM)
2,B2,no binding (tested: 1 µM)
3,B3,no binding (tested: 1 µM)
4,B4,no binding (tested: 1 µM)

# Target: human CD40 (human, UniProt P25942 21-193, limits assumed)
# Sequence (P25942 21-193 limits assumed): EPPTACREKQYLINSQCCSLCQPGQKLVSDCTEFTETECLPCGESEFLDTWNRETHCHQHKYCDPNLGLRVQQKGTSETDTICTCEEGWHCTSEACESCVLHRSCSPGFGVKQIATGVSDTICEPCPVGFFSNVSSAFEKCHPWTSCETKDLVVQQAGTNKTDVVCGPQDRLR
# Assay: SPR, receptor amine-coupled to CM5 (~1000 RU)
# Experimental: as §2
row,Binder,binding result
1,B1,no binding (tested: 1 µM)
2,B2,no binding (tested: 1 µM)
3,B3,no binding (tested: 1 µM)
4,B4,no binding (tested: 1 µM)

# Target: T3, human OX40
# Assay: SPR, receptor amine-coupled to CM5 (~1000 RU)
# Experimental: as §2
row,Binder,binding result
1,B1,no binding (tested: 1 µM)
2,B2,no binding (tested: 1 µM)
3,B3,no binding (tested: 1 µM)
4,B4,no binding (tested: 1 µM)

# Target: T6, biotinylated hPD-L1-Avi-His (Acro Biosystems, PD1-H82E5) (human, UniProt Q9NZQ7 19-238, biotinylated)
# T6 construct: bought; also called Human PD-L1-His; not shown: Avi and His tags of the bought product
# T6 sequence (Q9NZQ7 19-238): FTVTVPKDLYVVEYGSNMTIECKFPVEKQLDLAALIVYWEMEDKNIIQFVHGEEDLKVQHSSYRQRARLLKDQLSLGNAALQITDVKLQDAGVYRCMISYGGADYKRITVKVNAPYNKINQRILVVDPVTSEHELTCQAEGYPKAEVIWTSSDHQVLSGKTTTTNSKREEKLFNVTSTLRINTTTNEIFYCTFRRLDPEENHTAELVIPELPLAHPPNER
# Assay: SPR, antibody captured on Protein A chip, antigen in flow
row,Binder,Kd [nM]
1,B5,1.34
2,B6,0.5
3,B7,0.44

# Target: T7, cPD-L1-His (Acro Biosystems, PD1-C52H4) (cynomolgus, UniProt Q9NZQ7 19-238 (human entry))
# T7 construct: bought; also called Cyno PD-L1-His; Cynomolgus PD-L1-His; not shown: His tag of the bought product
# T7 sequence (Q9NZQ7 other isoform, or with tags, fused parts or gaps): as the sequence (Q9NZQ7 19-238) above, with A33T, A34S, S62N, R68Q, Q82R, F173L, T185A, T192I, H215L counted along it
# Assay: as above
row,Binder,Kd [nM]
1,B5,2.45
2,B6,0.89
3,B7,0.75
